Data on 2 molecules can be found in patent US20190112342A1 (UNIVERSITY OF CHICAGO, published 2019).

This assay addresses T1, human prothrombin (human, UniProt P00734 44-622).
T1 construct: also called PT
The assay is described as follows: affinity chromatography of human citrate-plasma, immunoblot with anti-prothrombin. A general note: A western blot detects proteins with antibodies after separation by electrophoresis.

B1: R domain of Coa Newman with C-terminal Strep tag (RST) (other)
chain: EARPRFNKPSETNAYNVTTHANGQVSYGARPTYKKPSETNAYNVTTHANGQVSYGARPTQNKPSKTNAYNVTTHGNGQVSYGARPTQNKPSKTNAYNVTTHANGQVSYGARPTYKKPSKTNAYNVTTHADGTATYG
notes: Encoded by plasmid pET15b-rST; also called repeat (R) domain; not shown: C-terminal Strep tag
Consider B1, for which the binding result was “no binding”.

B2: full-length strep-tagged Coa (CoaST) (other)
chain: IVTKDYSGKSQVNAGSKNGTLIDSRYLNSALYYLEDYIIYAIGLTNKYEYGDNIYKEAKDRLLEKVLREDQYLLERKKSQYEDYKQWYANYKKENPRTDLKMANFHKYNLEELSMKEYNELQDALKRALDDFHREVKDIKDKNSDLKTFNAAEEDKATKEVYDLVSEIDTLVVSYYGDKDYGEHAKELRAKLDLILGDTDNPHKITNERIKKEMIDDLNSIIDDFFMETKQNRPKSITKYNPTTHNYKTNSDNKPNFDKLVEETKKAVKEADDSWKKKTVKKYGETETKSPVVKEEKKVEEPQAPKVDNQQEVKTTAGKAEETTQPVAQPLVKIPQGTITGEIVKGPEYPTMENKTVQGEIVQGPDFLTMEQSGPSLSNNYTNPPLTNPILEGLEGSSSKLEIKPQGTESTLKGTQGESSDIEVKPQATETTEASQYGPRPQFNKTPKYVKYRDAGTGIREYNDGTFGYEARPRFNKPSETNAYNVTTHANGQVSYGARPTYKKPSETNAYNVTTHANGQVSYGARPTQNKPSKTNAYNVTTHGNGQVSYGARPTQNKPSKTNAYNVTTHANGQVSYGARPTYKKPSKTNAYNVTTHADGTATYGPRVTK
notes: Purified over Strep-Tactin-Sepharose; Used in the plasma pull-down and in the prothrombin and fibrinogen interference ELISAs; not shown: Strep tag
With B2, the binding result was “binds”.
